# Source: patent US8383117
# B1: VB1-008 monoclonal antibody (antibody, V domains shown)
# VH: QVQLQELGPRLVRPSQTLILTCTVSGGSVSGDEYYWSWLRQTPGKGLEWIGYMSYRGSSYYSPSLQSRVTIAVDRSKNEFSLKLTSVTAADAAVYFCARKYCGGDCRSGFDIWGRGTMVTVAS
# VL: YELTQPPSVSVSPGQKAFITCSGDNLGNKYVCWYQQKPGQSPVLVIYEDTKRPSGIPERFSASNSGNTATLTISGTQPIDEADYYCQAWDSRTEIFGTGTKVTVLS
# notes: also called 17P2/C12
# Tests used:
# [1] = molecular target: T1, CD44E (CD44 isoform 3, epithelial form) (human, UniProt P16070 21-742); assay: flow cytometry, MDA-MB-231 cells (moderately positive line)
# T1 construct: also called CD44v8-10; VB1-008 Ag
# T1 sequence (P16070 other isoform, or with tags, fused parts or gaps limits assumed): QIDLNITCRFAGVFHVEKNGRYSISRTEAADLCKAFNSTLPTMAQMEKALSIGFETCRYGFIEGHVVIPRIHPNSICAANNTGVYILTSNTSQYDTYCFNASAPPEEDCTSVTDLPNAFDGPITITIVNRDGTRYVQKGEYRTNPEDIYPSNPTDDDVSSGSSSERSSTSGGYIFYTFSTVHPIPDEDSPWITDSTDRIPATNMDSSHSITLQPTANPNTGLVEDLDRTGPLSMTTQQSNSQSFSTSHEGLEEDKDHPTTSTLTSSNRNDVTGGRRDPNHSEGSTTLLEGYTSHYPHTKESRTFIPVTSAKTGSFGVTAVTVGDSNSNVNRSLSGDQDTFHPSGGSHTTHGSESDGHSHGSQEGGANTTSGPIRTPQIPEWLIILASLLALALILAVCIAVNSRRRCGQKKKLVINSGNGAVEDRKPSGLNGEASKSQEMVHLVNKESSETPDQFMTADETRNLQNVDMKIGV
# [2] = molecular target: T1, CD44E (CD44 isoform 3, epithelial form); assay: flow cytometry, MB231 cells; control 4B5-IgG
# Excerpt: (§1) Appropriate isotype-matched controls were also used in the study.
# [3] = molecular target: T1, CD44E (CD44 isoform 3, epithelial form); assay: flow cytometry, PANC-1 cells (no antigen purified from this line)
# [4] = molecular target: T1, CD44E (CD44 isoform 3, epithelial form); assay: flow cytometry, A-375 cells, surface-bound antibody after 60 min at 37 °C
# [5] = molecular target: T1, CD44E (CD44 isoform 3, epithelial form); assay: flow cytometry, A-375 cells
# [6] = molecular target: T1, CD44E (CD44 isoform 3, epithelial form); assay: flow cytometry, DAUDI cells (called antigen-negative)
# [7] = molecular target: T1, CD44E (CD44 isoform 3, epithelial form); assay: flow cytometry, PANC-1 cells; control 4B5-IgG
# Excerpt: as §1
# [8] = molecular target: T1, CD44E (CD44 isoform 3, epithelial form); assay: flow cytometry saturation curve on A-375 tumor cells, Lineweaver-Burk; antigen on the cells identified later in the filing as CD44E
# Description: Values and graphical analysis were generated using Sigma Plot (Jandel Scientific, San Rafael, Calif.). The inverse of the determined median fluorescence was plotted as a function of the inverse of antibody concentration to determine KD by the Lineweaver-Burk method. A straight line was generated and the KD was calculated from the slope of the curve.
# [9] = molecular target: T1, CD44E (CD44 isoform 3, epithelial form); assay: flow cytometry, A-375 cells (very positive line)
# [10] = molecular target: T1, CD44E (CD44 isoform 3, epithelial form); assay: flow cytometry, A-375 cells, surface-bound antibody after 120 min at 37 °C
# [11] = molecular target: T1, CD44E (CD44 isoform 3, epithelial form); assay: flow cytometry, MCF-7 cells; control 4B5-IgG
# Excerpt: as §1
# [12] = molecular target: T1, CD44E (CD44 isoform 3, epithelial form); assay: flow cytometry, A-375 cells kept on ice for 120 min; over human IgG (4B5)
# [13] = molecular target: T1, CD44E (CD44 isoform 3, epithelial form); assay: flow cytometry, MB231 cells
# Excerpt: as §1
# [14] = molecular target: T1, CD44E (CD44 isoform 3, epithelial form); assay: flow cytometry, RAMOS cells; control 4B5-IgG
# Excerpt: as §1
# [15] = molecular target: T1, CD44E (CD44 isoform 3, epithelial form); assay: flow cytometry, MB435S cells; control 4B5-IgG
# Excerpt: as §1
# [16] = molecular target: T1, CD44E (CD44 isoform 3, epithelial form); assay: flow cytometry, DAUDI cells (called antigen-negative); control 4B5-IgG
# [17] = molecular target: T1, CD44E (CD44 isoform 3, epithelial form); assay: flow cytometry, A-375 cells; control 4B5-IgG
# Excerpt: as §1
# [18] = molecular target: T1, CD44E (CD44 isoform 3, epithelial form); assay: flow cytometry, PANC-1 cells (called a negative line in the immunoprecipitation)
# [19] = molecular target: T1, CD44E (CD44 isoform 3, epithelial form); assay: flow cytometry, MCF-7 cells
# Excerpt: as §1
# [20] = molecular target: T1, CD44E (CD44 isoform 3, epithelial form); assay: flow cytometry, MCF-7 cells (weakly positive line)
# [21] = molecular target: T1, CD44E (CD44 isoform 3, epithelial form); assay: flow cytometry, RAMOS cells (called a negative line)
# [22] = molecular target: T1, CD44E (CD44 isoform 3, epithelial form); assay: flow cytometry, MDA-MB-435S cells (very positive line)
# [23] = molecular target: T1, CD44E (CD44 isoform 3, epithelial form); assay: flow cytometry, RAMOS cells
# [24] = molecular target: T1, CD44E (CD44 isoform 3, epithelial form); assay: flow cytometry, DAUDI cells (called antigen-negative); remark: listed apart in the source
# [25] = molecular target: T1, CD44E (CD44 isoform 3, epithelial form); assay: flow cytometry, MB435S cells
# Excerpt: as §1
binder,measurement,setting,value
B1,increase in median fluorescence over isotype-matched control (MF),[1],14.2 fold
same,fold-increase in median fluorescence over isotype-matched control,[2],14.2 fold
same,Flow results,[3],8.95 fold
same,Fold-increase in MF,[4],13.5 fold
same,Flow results,[5],11.1 fold
same,increase in median fluorescence over isotype-matched control (MF),[6],1.1 fold
same,fold-increase in median fluorescence over isotype-matched control,[7],8.3 fold
same,Kd,[8],58.8 nM
same,increase in median fluorescence over isotype-matched control (MF),[9],13.3 fold
same,Fold-increase in MF,[10],12 fold
same,fold-increase in median fluorescence over isotype-matched control,[11],4.63 fold
same,Fold-increase in MF,[12],31.7 fold
same,Flow results,[13],14.2 fold
same,fold-increase in median fluorescence over isotype-matched control,[14],1.1 fold
same,fold-increase in median fluorescence over isotype-matched control,[15],15.8 fold
same,fold-increase in median fluorescence over isotype-matched control,[16],1 fold
same,fold-increase in median fluorescence over isotype-matched control,[17],13.3 fold
same,increase in median fluorescence over isotype-matched control (MF),[18],8.3 fold
same,Flow results,[19],4.63 fold
same,increase in median fluorescence over isotype-matched control (MF),[20],4.67 fold
same,increase in median fluorescence over isotype-matched control (MF),[21],1.3 fold
same,increase in median fluorescence over isotype-matched control (MF),[22],15.8 fold
same,Flow results,[23],1.1 fold
same,Flow results,[24],1 fold
same,Flow results,[25],15.8 fold
